Assay results taken from patent US20160319027A1.

Biological target: human TrkA on TF-1 cells (human), P04629
Experiment: cell-based or functional assay

human TrkA on TF-1 cells (human), P04629, sequence (P04629 33-796): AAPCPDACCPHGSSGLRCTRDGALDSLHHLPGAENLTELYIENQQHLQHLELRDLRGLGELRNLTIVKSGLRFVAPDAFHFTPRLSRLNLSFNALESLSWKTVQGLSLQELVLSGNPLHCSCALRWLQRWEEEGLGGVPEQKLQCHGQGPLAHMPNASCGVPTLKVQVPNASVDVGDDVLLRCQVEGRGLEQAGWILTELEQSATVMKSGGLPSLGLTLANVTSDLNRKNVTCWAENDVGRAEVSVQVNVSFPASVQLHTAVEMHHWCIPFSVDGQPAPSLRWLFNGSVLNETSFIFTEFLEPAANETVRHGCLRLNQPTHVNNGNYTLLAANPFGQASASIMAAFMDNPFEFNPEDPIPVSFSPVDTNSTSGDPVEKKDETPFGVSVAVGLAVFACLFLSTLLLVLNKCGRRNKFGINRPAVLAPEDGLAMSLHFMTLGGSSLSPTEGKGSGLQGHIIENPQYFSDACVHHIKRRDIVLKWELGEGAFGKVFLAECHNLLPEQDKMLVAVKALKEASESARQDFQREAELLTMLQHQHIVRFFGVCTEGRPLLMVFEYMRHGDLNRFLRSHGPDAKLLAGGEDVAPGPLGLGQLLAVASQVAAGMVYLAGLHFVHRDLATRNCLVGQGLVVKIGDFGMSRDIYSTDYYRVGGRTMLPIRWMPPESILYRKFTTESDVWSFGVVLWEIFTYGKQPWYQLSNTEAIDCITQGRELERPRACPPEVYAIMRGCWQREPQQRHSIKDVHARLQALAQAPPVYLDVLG

B1: MNAC13 mouse antibody (antibody, mouse IgG1, kappa)
heavy: EVKLVESGGGLVQPGGSLKLSCAASGFTFSTYTMSWARQTPEKRLEWVAYISKGGGSTYYPDTVKGRFTISRDNAKNTLYLQMSSLKSEDTALYYCARGAMYGNDFFYPMDYWGQGTSVTVSSKTTPPSVYPLAPGSAAQTNSMVTLGCLVKGYFPEPVTVTWNSGSLSSGVHTFPAVLESDLYTLSSSVTVPSSPRPSETVTCNVAHPASSTKVDKKIVPRDCGCKPCICTVPEVSSVFIFPPKPKDVLTITLTPKVTCVVVDISKDDPEVQFSWFVDDVEVHTAQTQPREEQFNSTFRSVSELPIMHQDWLNGKEFKCRVNSAAFPAPIEKTISKTKGRPKAPQVYTIPPPKEQMAKDKVSLTCMITDFFPEDITVEWQWNGQPAENYKNTQPIMNTNGSYFVYSKLNVQKSNWEAGNTFTCSVLHEGLHNHHTEKSLSHSPGK
light: QIVLTQSPAIMSASLGEEITLTCSASSSVSYMHWYQQKSGTSPKLLIYTTSNLASGVPSRFSGSGSGTFYSLTISSVEAEDAADYYCHQWSSYPWTFGGGTKLEIKADAAPTVSIFPPSSEQLTSGGASVVCFLNNFYPKDINVKWKIDGSERQNGVLNSWTDQDSKDSTYSMSSTLTLTKDEYERHNSYTCEATHKTSTSPIVKSFNRNEC
TF-1 cell proliferation assay IC50 (5 ng/ml human beta-NGF): 0.23 µg/mL
